Laboratory results taken from the nanobody polyreactivity screen of Harvey et al. (2022).

Test: yeast display, Sf9 membrane polyspecificity reagent, FACS + sequencing; frameworks hold sequencing errors
How it was run: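 Nanobodies came from a synthetic yeast display library in Saccharomyces cerevisiae BJ5465, induced with galactose for 36–48 hours and stained for 1 hour at 4 °C with 10% biotinylated, detergent-solubilized Sf9 membrane reagent. Cells were enriched on streptavidin microbeads and then FACS-sorted, with low and high (top ~1%) gates set on anti-HA fluorescence for expression and streptavidin fluorescence for reagent binding. Each polyreactivity label reflects the gate a clone came from. Genes were amplified by colony PCR, sequenced by MiSeq 2 × 250 and filtered by CDR length.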

Sequence | polyreactivity (PSR sort gate)
QVQLVESGGGLVQAGGSLRLTCAASGYAMGWYRQAPGKERELVAAISWSGDITYADSVKGRFTISRDNAKNTVYLQMNRLKPEDTAVYSCNADRYTGRDGEQSLDYWGQGTQVTVSS | low polyreactivity
QVQLVESGGGLVQAGGSLRLTCAASGYTFNYYAKGWYRQAPGKERELVAAIDWSDGTTYYADSVKGRFTISPDYAKNTVYLQMNSLKPEDTAVYYCAASLSQSEYDYWGQGTLVTVSS | low polyreactivity
QVQLVESGGGLVQAGGSLRLTCAASRIIFRKYAMGWYRQAPGKERELVAAISSSAGSTYYADSVKGRFTISRDNAKNTVYLQMNSLKPEDTAVYYCAADRHYTRYDYWGQGTQVTVSS | high polyreactivity
QVQLVESGGGLVQAGGSLRLTCAATGRTFYNGMGWYRQAPGKERELVAAISRGGSTYYADSVKGRFTISRDNAKNTFYLQMTSLKPEDTAVYYCAIDQSRYVYVTLRGGYWGLGTQVTVSS | low polyreactivity
QVQLVESGGGLVQAGGSLRLTCADSGIIYTYNAMRWYRQAPGKEMEFVATITWSGGSTYYADSVKGRFTISRDNAMNTVYFQMNSLKPEDTAVYYCAVDYSRHGYWSPVYEFNYWGQGTQVTVSS | low polyreactivity
QVQLVESGGGLVQAGGSLRLTCAPSVRIFTIYDMGRYRQAPGKERELVATITYSSGSTSYADSVKGRFTISRDNAKNTVYLLMNSLKPEDTAVYYCAKKYYSGYGYWGQGTQVTVSS | low polyreactivity
QVQLVESGGGLVQAGGSLRLTCDASGYIFSKYAMGWYRQAPGKERELVAAISGSGGSTSYADSVKGRFTISRDNAKNTVYLQMYCLKPEDTAVYYCIARSRLQRGRMDYWGQGTQVTVSS | high polyreactivity
QVQLVESGGGLVQAGGSLRLTSAASGYIFEEYDMGCYRQAPGKERELVAAIRFSSASTTYADSVKGRFTISRDNAKNTVYLQMNSLKPEDTAVYYCAVKAGDVYSDYDYWGQGTQVTVSS | low polyreactivity
QVQLVESGGGLVQAGGSLRSSCAATGRTFYYNGMGWYRQAPGKERELVATITNGGSTNYADSVKGRFTISRDNAKNTVYLQMNSLKPEDTAVSYCAKTLASDCYDYWGQGTQVTVSS | low polyreactivity
QVQLVESGGGLVQAGGSLRVICAASGIIFPIYAMGWYRQAPGKEWELVAGISTGGGGTYYADSVKGRFTISRDNAKNTVYLQKNSLKPEDTAVYYCNVDAAGSNSHARHDSWGQGTQVTVSS | low polyreactivity
QVQLVESGGGLVQAGGSLRVICAASGLIFYGYMGWSRQAPGKERELVAAISYTGGSTYYADSVKGRFTISRDNAKNTVYVQMNSLKPEDTAVYYCARDWRTKWFGYWGQGTQVTVSS | low polyreactivity
QVQLVESGGGLVQAGGSLRVICAPSGSTFGVYAMGWYRQAPGKERDLVAAISDTGGSTYYADSVKGRFTISRDNAKTTVYLQMNSLKPEDTAVYYCAVEVGYTDSPYSYDYWGHGTQVTVSS | low polyreactivity
QVQLVESGGGLVQAGGSLRVSCAASGFIFLAYAMGWYSQAPGKERELFAAIDTSGGSTYYADSVKGRFTSTRDNAKNTVYLQMNSLKPEDSAVYYCAADDYDQYYFDYDYWGQGTQVTVSS | low polyreactivity
QVQLVESGGGLVQAGGSLRVSCAASGFIFRRYAMGWYRQAPGKERELVAAIRTNSGSTYYADSVKGRFTISRDNAKNTVYLQMNSLKPEDTAVYYCATGQVYRTVSWLYNYWGQGTQVTVSS | high polyreactivity
QVQLVESGGGLVQAGGSLRVSCAASGGTFTAYAMGGYIQAPGNERQLVAAISASGDSTYYADSVKGRFTISRDNPKHTVYLQMNSLKPDDTAVYYCAADWAYKYELDYWGQGTQVTVSS | low polyreactivity
QVQLVESGGGLVQAGGSLRVSCAASGLIFNTYAMGWYRQAPGKERELVAAITVGGGTNYADSVKGLFRISRDNAKNTVYLQMNSLNPADTAVYYCAARLASWPLTYDFQWYEYWGQGTQVTVSS | low polyreactivity
QVQLVESGGGLVQAGGSLRVSCAASGLTFKINAMGWYRQEPGKERELVAAITWNGGRTYYADSVKGRFTISRDNAKNTVYLQMNSLKPEDTAVYYCAADGKYYHRRPGWPIYDYWGQGTQVTVSS | high polyreactivity
QVQLVESGGGLVQAGGSLRVSCAASGLTLPPYAMGWDRQAPGKERELVAAITSGGSTNYADSVKGRFTISRDKAKNTVYLQLNSLKPEDTAVYYCAAVGRHYYVKFDFWGQGTHVTVSS | low polyreactivity
QVQLVESGGGLVQAGGSLRVSCAASGNTFGGYAMGWYRQAPGKERELVAAISSSGGSTYYADSVKGRFTISRDNAKNTVYLQMNSLKPEDTAVYYCAAYGGVYGYWTMGYWGQGTQVTVSS | high polyreactivity
QVQLVESGGGLVQAGGSLRVSCAASGNTFGYFAMGWYRQAPGKERELVAAMSGSGGRTYYAASVKGRFTISRDNAKNTVDLQMNILKPEATAVYYCNAVYYHVVDFDYWGQGTQVTVSS | high polyreactivity
QVQLVESGGGLVQAGGSLRVSCAASGRTFGGYAMGWYRQAPGKERELVAAISDRGTSTYYADSVKGRFTISRDNAKNTVYLQMNSLKPEDTAVYYCAARINYWGYYYWGQGTQVTVSS | high polyreactivity

Sequence | polyreactivity (PSR sort gate)
QVQLVESGGGLVQAGGSLRVSCAASGRTIRWNAMGWSRQAPGKEREMVAAITSRGGSTYYADSVKGRFTISRDNAKNTVYLQMNSLKPEDTAVYYCAKQPKPPPVTGYDYWGQGTQVTVSS | high polyreactivity
QVQLVESGGGLVQAGGSLRVSCAASGSIFRFHVMGWYRQAPGKERELVAAITRGDSTNYADSVKGRFTIPRDNAKNTVYLHMNSLKPEATAVYYCATKTPGWGIFDYWGPGTQVTVSS | low polyreactivity
QVQLVESGGGLVQAGGSLRVSCAASGSTCSQYVMGWYRQAPGKERELVAAISGGYRTYYADSVKGRFTISRDNAKNTVYLQMNSLKPEDTAVYYCAAEVLKTRWSYDYWGQGTQVTVSS | high polyreactivity
QVQLVESGGGLVQAGGSLRVSCAASGSTFPSNAMGWYRQAPGKERELVATITSAGGGTYYADSVKGRFTISRDNAKNSVYLQMNSLKAEDTAVYYCNADGPAGDAFDYWGPGTQVTVSS | low polyreactivity
QVQLVESGGGLVQAGGSLRVSCAASGSTFRVNGMGGYRQAPGKERELLATIRGRGGTTYYADSVKGRFTISRDNAKTTVYLQMNSLKPDDTAVSYCAATNVKRTEGYTPDYDYWGHGTQVTVSS | high polyreactivity
QVQLVESGGGLVQAGGSLRVSCAASGSTFWSNVMGWYRQAPGKERELDSAISYGGVTTSYADSVKGRFTISRDNAKNTVYLQMNSLKPEDTAVYYCATDYVGYYFYESDYWGQGTQVTVSS | low polyreactivity
QVQLVESGGGLVQAGGSLSFSCAASGSIFDYNAMGWYRQAPGKERELVADIRGIGGSTYYADSVKGRFTISRDNAKNTFYLQMNSLIPEDTAVYYCNTSTLGGYYWGQGTQVTVSS | low polyreactivity
QVQLVESGGGLVQAGGSLSLICAASGRNFYTYAMGWYRQAPGKERELVAAISWSGGSTYYADSVKGRFTISRDNAKNTVYLQMNSLNPEDTAVYYCNARFRFGWPGYDYWGQGTQVTVSS | high polyreactivity
QVQLVESGGGLVQAGGSLSLICADTGLTFRVYAMGWYRQAPGKERELVAAISSRGGSTYYADSVKGRFTISRDNAKYTVLLQMNSLKPEDTAVYDCYARGQGGYWGQGTQVTVSS | high polyreactivity
QVQLVESGGGLVQAGGSLSLSCAASGFIFGWYAMGWFRQAPGKERELVAAIYASGTRTYYADSVKGRFTISRDNAKNTVYLQMNSLKPEDTAVYYCNVYTKFVYAYDYWGQGTQVTVSS | high polyreactivity
QVQLVESGGGLVQAGGSLSLSCAASGFNSSHYAMGWYRQAPGKERELVATISSGGSTYADSVKGRFTISRDNAKNTVYLQMNSLKPEDTAVYYCDKGVRYKQYHIMYYWGQGTQVTVSS | high polyreactivity
QVQLVESGGGLVQAGGSLSLSCAASGFTFGRNAMGWYRQAPGKERELVASIDWSGGSTYYADSVKGRFTISRDNAKNTVYLQMNSLKPEDTAVYYCAVGPNSVGNRSYGFDYWGQGTQVTVSS | low polyreactivity
QVQLVESGGGLVQAGGSLSLSCAASGFTFYSYTMGWYRQAPGKDREMVAAISGRSVRTYYADSVKGRFTISRDNAKNTVYLQMNSLKPEDTAVYYCARAYYWRTSWYNYWGQGTQVTVSS | high polyreactivity
QVQLVESGGGLVQAGGSLSLSCAASGIIFYNYAMGWYRQAPGKERELVAAISSSGGRTYYAESVKGRFTISRDNAKNTVYLQMNSLKPEDTAVYYCAAYVWAYYVPYNYGYWGQGTQVTVSS | high polyreactivity
QVQLVESGGGLVQAGGSLSLSCAASGITLYWYAMRWYIQAPGKERELVATINWSGGSTYYADSVKGRFTISRDNAKNTVYLQMNSLKPEDTAVYYCNVDYSDEGMGYWGQGTQVTVSS | low polyreactivity
QVQLVESGGGLVQAGGSLSLSCAASGLIFLQYGMGWYREAPGKERELVAAITTRGGRTYYADSVKRRFTISRDNAKNTVYLQMNSLKPEDTAVYYCAADSEQDNLRYYRWVWYYYWGQGTQVTVSS | low polyreactivity
QVQLVESGGGLVQAGGSLSLSCAASGLIFYIYAMGWYRQAPGKEMELVAAITESGGSTYYADSVKGRFTISRDNAKNTVYLQMNSLKPEDTAVYYCAKDFHNYPSFGEDYWGQGTQVTVSS | low polyreactivity
QVQLVESGGGLVQAGGSLSLSCAASGLTFANYVMGWYRQEPGKERELVAAISRSGGSTYYADSVKGRFTISRDNAKNTVYLQMNSLKPEDPAVYYCAAAAWDPKGSRYDYWGQGPQVTVSS | low polyreactivity
QVQLVESGGGLVQAGGSLSLSCAASGLTFTGNAMGWYRQAPGKERELVAAISWSGGSTYYADSVKGRYTISRDNAKNTVYLQMNSLKPEDTAVYYCGDPDSRYDYWGQGTQVTVSS | high polyreactivity
QVQLVESGGGLVQAGGSLSLSCAASGLTFVYYVMGWYRQAPGKERELVAAISSGGGTYYADSVKGRFTISRDNAKNTVYLQMNSLKPEDTAVYYCAADLLGWFDFDYWGQGTQVTVSS | high polyreactivity
